Target: T1, osteocalcin C-terminal 7-residue peptide BGP-C7 (human)
T1 construct: C-terminal 7 residues of human osteocalcin (bone Gla protein, BGP), printed as NH2-RRFYGPV-COOH; Free N- and C-termini as printed (NH2-RRFYGPV-COOH); also called antigen peptide; osteocalcin C-terminal peptide
T1 chain: RRFYGPV
Assay: crystal structure; KTM219 Fab with three molar excess BGP-C7, complex purified by gel filtration; crystallised at 20 °C, sitting drop, 0.07 M citric acid, 0.03 M Bis-tris propane (pH 3.4), 16% w/v PEG 3350, microseeding; refined to 2.30 Å
Conditions: both partners purified

binding result: binds
B1: Fab fragment of anti-osteocalcin C-terminal peptide antibody KTM219 (Fab, V domains shown)
VH: QVKLQQSGAEFVKAGASVKLSCKTSGYTFNNYWIHWVKQSPGQGLEWIGEIDPSDGYSNYNQKFKGKATLTVDKSSSTAYMHLNSLTSEDSAVYYCTSSTSVGGSWGQGTTVTVSS
VL: DIELTQSPLSLPVSLGDQASISCTSSQSLLHSNGDTYLHWYLQKPGQSPKLLIYTLSNRFSGVPDRFSGSGSGTDFTLKISRVEAADLGIYFCSQTTHVPYTFGGGTKLEIK
notes: heavy chain (VH-CH1) of KTM219 Fab; light chain (VL-CL) of KTM219 Fab; also called KTM219 Fab

— article PMC11765575 (International Journal of Molecular Sciences, 2025)
